Laboratory results: article PMC4358367, “Structural basis of diverse membrane target recognitions by ankyrins” (eLife, 2014)
Numbering of substitutions follows the chain as printed. Where no end group is shown, it is not given here.

Experiments:
[1] = molecular target: T1, AnkB_repeats (24 ANK repeats of human 220 kDa ankyrin-B, residues 28–873) (human, UniProt Q01484 28-873); assay: fluorescence polarisation; FITC-labeled peptide (~1 µM) titrated with AnkB_repeats WT or mutants; 25°C; 50 mM Tris pH 8.0, 100 mM NaCl, 1 mM DTT, 1 mM EDTA; one-site binding model; details: both partners purified
T1 construct: ankyrin-B (AnkB), human, 220 kDa isoform used as template, ANK repeats, residues 28-873; source: E. coli BL21 (DE3), purified
T1 sequence (looked up): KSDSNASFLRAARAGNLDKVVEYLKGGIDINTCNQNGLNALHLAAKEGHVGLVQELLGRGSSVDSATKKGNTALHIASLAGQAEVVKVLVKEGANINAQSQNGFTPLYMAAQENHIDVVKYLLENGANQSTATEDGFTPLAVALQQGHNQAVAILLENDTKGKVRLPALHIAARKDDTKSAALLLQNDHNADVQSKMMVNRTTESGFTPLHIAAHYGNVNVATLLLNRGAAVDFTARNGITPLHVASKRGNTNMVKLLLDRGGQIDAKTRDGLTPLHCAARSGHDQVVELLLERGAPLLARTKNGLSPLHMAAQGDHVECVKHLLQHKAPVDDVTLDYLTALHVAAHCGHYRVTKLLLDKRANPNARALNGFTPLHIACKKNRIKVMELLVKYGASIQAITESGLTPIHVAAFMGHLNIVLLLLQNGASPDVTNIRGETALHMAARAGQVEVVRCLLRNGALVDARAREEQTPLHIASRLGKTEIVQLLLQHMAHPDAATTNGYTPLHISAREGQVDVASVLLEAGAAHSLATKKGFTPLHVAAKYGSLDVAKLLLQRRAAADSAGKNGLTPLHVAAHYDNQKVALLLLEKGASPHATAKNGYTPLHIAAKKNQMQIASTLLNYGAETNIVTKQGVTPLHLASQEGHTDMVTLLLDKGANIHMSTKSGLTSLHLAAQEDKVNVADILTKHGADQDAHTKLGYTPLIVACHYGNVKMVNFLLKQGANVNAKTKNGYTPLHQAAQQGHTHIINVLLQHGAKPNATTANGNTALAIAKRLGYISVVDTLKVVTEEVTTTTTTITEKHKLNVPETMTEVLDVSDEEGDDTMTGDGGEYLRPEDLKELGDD

[2] = molecular target: T2, AnkB_repeats site 2 mutant 'IL' (Ile267 and Leu300 to Gln) (human, UniProt Q01484 28-873, Ile267 substituted with Gln | Leu300 substituted with Gln); assay: FP
T2 sequence: T1 sequence (looked up) with I240Q, L273Q

[3] = molecular target: T3, AnkB_repeats (24 ANK repeats of human 220 kDa ankyrin-B, residues 28–873) (human, UniProt Q01484 28-873); assay: FP
T3 chain: T1 sequence (looked up)

[4] = molecular target: T4, AnkB_repeats site 3 mutant 'LFL' (Leu366, Phe399 and Leu432 to Gln) (human, UniProt Q01484 28-873, Leu366 substituted with Gln | Phe399 substituted with Gln | Leu432 substituted …); assay: FP
T4 sequence: T1 sequence (looked up) with L339Q, F372Q, L405Q

binding result [1]: binds | Kd [2]: 8.2 µM | Kd [3]: 3.3 µM | Kd [4]: 4 µM
B1: Cav1.3 peptide (mouse Cav1.3 residues 2134–2166), FITC-labeled (peptide, UniProt Q99246-4 2134-2166, looked up)
peptide: ELQDFGPGYSDEEPDPGREEEDLADEMICITTL
modifications: also: FITC label (position not given here)
notes: voltage-gated calcium channel Cav1.3, mouse, residues 2134-2166; also called voltage-gated calcium channel Cav1.3 peptide; source: synthetic peptide (commercially synthesized)
